# Data taken from a protein production outcome set (Wang et al. 2014).
# Experiment: label from the status in PepcDB records
row,Sequence,protein production
1,MPLAVLERDGSFLGVLTPHSIVEVLLERERRLLEDARKINAEIRREADKAIEQLDIKAHYDTVTGLPNRQLFCDRLLQALAAHERDGNPVVLLFLDVDNFKSINDSLGHLVGDRLLRATAERIRTAVRDGDTVARIGGDEFTILLNGAKDTLNGALVAQKILDGLAQPFVFGAQQIVISVSIGIAVSPADGETMEQLLRNADTAMYHAKSRGKNNYQFFSPELNVQAYRRQEIERNLRCALLQGELGLRYAPRVDLRSGRIVALEVCPFWLSSELGDVPPDDFIPVAEETGLIVQIGIWAFRTACAHAAVWRTQGLADRCLSFRLSQRELDDPQFGDRIMSLLDGCGLEPENLQFELSERMLMTHAAHTLAVLQELSNRGIRFSVGDFGTGNASLRRLRRFPIDELKIDLSSVRDIEPDSDDAAVITAMIAMAKSLRMDVVAVGVETPEHVAFLLERGCRHGQGRLIGARLPPERIAALLAGDAVDLFVALEHHHHHH,failed
2,MPEFTNNPVAECDTVFSEKDGKKIVDFIIYPAKNGDQWVGTAVEAKSMGFGGELKVLVGFDAEGKIYNYSLLSHAETPGLGSKAADWFKEGNKGSIKGMNPGEQPLTVSKDGGQVDAITASTITSRAFLNAVNAAYGAYKGDGGANGTTGASQKAVQKSETAIVDSVVIKLEHHHHHH,not failed
3,MFGFLRSTTSNDNTLSDTQVNESYRYWRLHIMIGMYIGYAGFYFTRKTFNYAAPAMITDLGLDKGDLGLIGTLFYISYGLSKFLSGTISDRSNPRYFMGLGLIATGLINIAFGFSSSLAAFISLWVLNAWFQGWGWPSCSKLLTTWYSRSERGFRWAIWNTAHNIGGALIPILVGYLTLHYSWREGFILPGIIGVAIGLIVCWRLRDKPTTMGLPSVGKWRNDPLELAQENHGQGLSYREILKTYVFSNKYIWLLAFSYVLVYIVRTAVNDWGNLYLTEEHNYSLINANAALSLFEIGGFVGSLVAGWGSDKLFGGNRGPMNILFAIGIFLSVSALWLMPLTNFVFQAAGLFSVGFFVFGPQMLIGMAAAECSHKDSAGAATGFVGLFAYMGAALSGYPLAVILETYGWTGFFITISTCAAVIGLLLLPFLQAQSPQKPIETRVRL,failed
4,MTEEKKRGFRIPSSYTVLFIIIAIMAVLTWFIPAGAYETAKGGGVISGTYKTVASNPQGFFDILMAPVRGMLGVEGTDGAIQVSFFILMVGGFLGVVNKTGALDTGIASVVRKNKGREKMLIAILIPLFALGGTTYGMGEETMAFYPLLIPVMIAVGFDSIVAVAIILIGSQIGCLASTINPFATGVAADAAGVSIADGMIWRVIQWVILVGMSIWFVYNYASKIEEDPSKSLVADKEEEHKELFQLQNSGEDLNKRQRNVLTIFTLTFVIMILSLIPWEDFGIKFFTNINTWLTTMPILGGVIGKTMGAFGTWYFPEITMLFIMMGVLVAIVYRMSEEDFFSSFLTGAGEFLGVAMICAIARGIQVIMNGGMITATILHLGETSLSGLSSQVFVILAYIFYLPMSFLIPSTSGLAGATMGIMAPLGQFSNVPAHLVITAFQSASGILNMISPTSAIVMGALALGRVDLGTWWKFIGKFIVMVMLVSVLLLVVATFF,not failed
5,MPMPSVRHDEHRPLSPAATLIGPARALEAVLAPGPGPGRPPGLPRPAPGTRRAMKWQQVQEGPSAVYVVVLDQGEDAVAELTAFARERSLGASQVTAVGAFSQAVVGWFDRQAKDYRHIPVREQCEVLSLIGDIAVADDGPTPHLHAVLGLSDGSTRGGHLLSGRVWPTLEVVVRDSPAELAKIHRPDIGLALIDPG,failed
6,MNPIEFWFDFSSGYAFFAAQRIEALAAELGRTVLWRPYMLGAAFSVTGARGLSSTPLKRDYAQRDWARIARQRGLTFRPPADHPHVALAATRAFYWIEAQSPDAATAFAQRVFDLYFSDRLDTASPEAVSRLGPEVGLEPEALLAGIADPALKETVRKIGEDAVARGIFGSPFFLVDDEPFWGWDRMEMMAEWIRTGGW,not failed
7,MTTPPLRIGLIGAGYIAAWHADALRAVPGVKLTAVCDPNMDLAEGLAAAHGARAFGDLDDLIGAGLCDGVHILTPPDLHHPLALHCLRAGLHVLVEKPVALNAAQTQEIEDAARAANRRFHAGHNFLGLPSYTRLKREIRRGALGRVSGAEIRWCYPFGPLRAGPFGIWPLRDTRNLMLEFGPHLMSLVIDLFGLPEIEHVALSKPVALPGAGTRPQGWRILARAGEVELVLILSLVETADDRSVTIRGSSARARLDLAADTLVIDAENTADLVANPLLRQLSLARQHLVQGSVNAARQLTSFNRKSPYALSFRGLANGIWEPLAQNAPADPRWSGSSAVAVMTALDAVLERVDWPAPVPASPSRKPAPSAMVIGGTGFIGRALTRELVARGSDVRVISRGRQGSFADLPDQVETVSLSLRDTEGLARAMAGIDTVYNLARSTDSSWEDCLQNDVAVAEGIGKAALAAGVRRLVYTGTIASFDMSDPAATITDATPLPDEMDERNLYARSKAECERRLMALHRQSALPLVIARPGIVLGAGGPLQHWGIGRWHGAGAVRLWGNGRNPLPFVLIGDCVDGLIRCAEAEGIEGRAFNLVGPPILSARDYFDAIHDRLGARIRVSGGNLSLMYAADWVKFQLKTRVLGRSGLTRPSRADWLSRAHQSRFDISGARSALGWHPVSDADAFLTNAVDEAGLLGF,failed
8,MSKGTLFDKVWDLHTVGTLPSGLTQLFIGLHLVHEVTSPQAFAMLRERGLKVLFPERTVATVDHIVPTENQARPFVDRLAEEMIQALEQNCQENNITFYNIGSGNQGIVHVIAPELGLTQPGMTIACGDSHTSSHGAFGAIAFGIGTSQVRDVLASQTLSLSKLKVRKIEVNGTLNPGVYAKDVILHIIRTLGVKGGVGYAYEYAGTTFEQMNMEERMTVCNMAIEGGARCGYVNPDQVTYDYLQGRDFAPQGADWEKAVAWWESIKSDADAEYDDVIVFNAADIPPTVTWGITPGQGIGVNQLIPQPEELLEEDRFVAEEAYRYMDLYPGQPIKGTKIDVCFIGSCTNGRLSDLQEAAKIAKGRHVAEGVKAFVVPGSERVKKAAEAEGLDKIFEAAGFEWREPGCSMCLAMNPDKLEGRQISASSSNRNFKGRQGSASGRTLLMSPAMVATAAIQGEVADVRELL,not failed
9,MASNMDREMILADFQACTGIENIDEAITLLEQNNWDLVAAINGVIPQENGILQSEYGGETIPGPAFN,failed
10,MAAKRLAVLCIFLLPNTQFRQLRLAETAEELPQLLREAEKASWTYLEFLESITRYELAKREAKSLEKRMKWARFPFVKSLDEFELRGQNVLTARQLSQLRELSWLEQQYNLILLGPPGIGKTYIAIGLGLEAVYRGFHVYFATMGELVQLLKSEEYLNKSKVQLKRIRNADLVIIDDLMYMAMDQREANLFFHLINHLYERSSIILTSNKSPEEWGHLIGDQGITTAILDRLLHRVEVIHGGENEESHRMKNRKSIFSAEVLEHHHHHH,failed
11,MKFSEECRSAAAEWWEGSFVHPFVQGIGDGTLPIDRFKYYVLQDSYYLTHFAKVQSFGAAYAKDLYTTGRMASHAQGTYEAEMALHREFAELLEISEEERKAFKPSPTAYSYTSHMYRSVLSGNFAEILAALLPCYWLYYEVGEKLLHCDPGHPIYQKWIGTYGGDWFRQQVEEQINRFDELAENSTEEVRAKMKENFVISSYYEYQFWGMAYRKEGWSDSAIKEVEECGASRHNG,not failed
12,MQKFFQRIWQWIQQLFAPLVGGPGPGTKSLQELPPLSDTDYEFLFNQLLEGIAHGWHEGRILKFFQQLDHRCRPKQWLDWLDRFQTTVLASPSPNLVLAARMMRLGELAQSFPQIAPIGDKSQRIGRELYARQSPPQMDTVWEYDGPDLVSIDQAQGQMETFTFDELVQRLPQDAALATHFAGFLGIESTDPQVILRALMEKFAIPEEMLTEALNHGGESSSAPVDSLVEDQGTASALAQEELWPLVDPVTIDNSQFENNQEPHTAEDWLNLGIQQAQRGELETAIASWGEAISLNPQMTSAWQNRGSALGVMGKLEEALANFDEALAQNPDDAEVWLSRGLLLEAMERKEEAIPSYEKALTLEPTLPEAQERLEELQGLLSQD,failed
13,SFPNRRIVTTVFNDEGIQFLVTRYIKALNPPQQLLDIFLHNSNATFDLIARFVSLIPFVPNTPDENDGSDIWMTSEHCISLAIGNKEEHAILLCNFFLYFGKKALVLLGTSVLEGHVAYVVTQETNEYLLWNPSTGQCYKQFDPFCPLKSVDCLFDDRNVWFNIQQNNTPMAVFFDYSKESFWKQLLPKNVQGTKIQSIQVTGFPIQMPYIDVQSIIDAVYQTGIHSAEFPQTEFALAVYIHPYPNNILSVWVYLASLVQHQ,not failed
14,MDSQELKTLINYYCQERYFHHVLLVASEGIKRYGSDPVFRFYHAYGTLMEGKTQEALREFEAIKNKQDVSLCSLLALIYAHKMSPNPDREAILESDARVKEQRKGAGEKALYHAGLFLWHIGRHDKAREYIDRMIKISDGSKQGHVLKAWLDITRGKEPYTKKALKYFEEGLQDGNDTFALLGKAQCLEMRQNYSGALETMNQIIVNFPSFLPAFVKKMKLQLALQNWDQTVETAQRLLLQDSQNVEALRMQALYYVCREGDIEKASTKLENLGNALDAMEPQNAQLFYNITLAFSRTCGRSQLILQKIQTLLERAFSLNPQQSEFATELGYQMILQGRVKEALKWYKTAMTLDETSVSALVGFIQCQLIEGQLQDADQQLEFLNEIQQSIGKSAELIYLHAVLAMKKNKRQEEVINLLNDVLDTHFSQLEGLPLGIQYFEKLNPDFLLEIVMEYLSFCPMQVSNYGTYFQGCVYLMFYERT,failed
15,LEYSNIPITDNNKVKLIKSGREKFEDLFEAIRGAKHHIHLEYFNFRNDSIANALFDLLGEKVKEGVKVRAMFDAFGNWSNNKPLKKRHLKAIREKGIEIVKFDPFKFPYINHAAHRDHRKIAVIDGKIGYTGGMNIADYYINGLPKIGTWRDMHIRIEGDAVNILQEIFLDIWNKTTKQNIVGEEYFPNHPERADSCNTVISIVDRTPKRNSRMLSHT,failed
16,ERKRREKRLEETSSRLEALFENSPDMIDVLDADGTICEVNQRFCAELGYDESEVLGRSIWEFDLMFDAEDVQTQLSGFSVDERRKFEGLYERRDGSTMSVEVHLLRFNLEGEDRFLAISRDIT,not failed
17,MEMKTKKAVLMSSLALSIIAFLLALILMQPNSAGYPEVPAVPTYVLFGLSAASFAVFIYEYFTATRT,failed
18,MSAPRLPVTVLTGFLGAGKTTLLSKLLENNKQRRLAILVNEFGEVSIDGGLLRDGENQGVEIHDLANGLVAYDDDADFLPTMLALWQRRQQIDHVLIETSGLALPSAVMAQLQSEALAPYFVLDATLAVVDTPLLLAGHFAPAGDGGKTDAVAALFDQQLGHADIVVLNKIDALSADQLLAAEEAVRKQAPSIRFIELAYEAKLDTRLTLGLHLHEASPAAHRHYGPVASMPGLAMRPLANQTLLDGHSHGGQAAHSHGLATHKHFHEQDPGWQSFMIRSKEPQCADKLAAALQAIAREEPLLRIKGFAACADSPGRLLAQGVRSRIELSRDDTLAAPRQAQLVFIGYHPSRPRVVALLRDITGAHWSLEHHHHHH,failed
19,MGRVKLELKRIEKSTNRQITFSKRKKGLIKKAYELSTLCDIDLALLMFSPSDRLCLFSGQTRIEDVLARYINLPDQERENAIVFPDQSKRQGIQNKEYLLRTLEKLKIEDDMALQINEPRFIPH,failed
20,MEIHFEKVTSDNRKAVENLQVFAEQQAFIESMAENLKESDQFPEWESAGIYDGNQLIGYAMYGRWQDGRVWLDRFLIDQRFQGQGYGKAACRLLMLKLIEKYQTNKLYLSVYDTNSSAIRLYQQLGFVFNGELDTNGERVMEWTHQNK,not failed
21,MASVNSPIRTFLKPLLFKLFGKNVYARFQFYAKIKDIDKRLVEEKEMELLPYFLNKDSNSIDVGANYAYYTVGMSKLSKKVFAYEPIPFTYKVCKMLLKHYNCANVDLFAQGVGEKNEIKRFNVPVVDFGGISAGQAHMADRNNELKGKEQHYQFSKNEAYDCTVVSLDAAITDITPISFVKMDIEGAEYFALKGMQQLLLKHKPVILIEINPFFLTGFDIKENDLKNLIASHAYKTYIYSAELKKLQAFECAYFESNYILIPEEKIAQFNAIIE,failed
